# Experimental data as given in patent US20200071775A1.
# Target: potato virus Y (PVY)
# Assay: sandwich ELISA, PVY captured by PVY capture antibody (Agdia), phage at 3 µg/ml, anti-M13 HRP detection
substance,measurement,value
M13KO7 bacteriophage (from UniProt P69168 19-424; P69530 1-112; P69541 24-73),"improved sensitivity compared to the existing antibody (PVY detection antibody, Agdia)",25%
